Measured values taken from publication PMC1282572, “Avidin related protein 2 shows unique structural and functional features among the avidin protein family” (BMC Biotechnology, 2005).

Molecular target: the molecule itself
Test: SEC; FPLC gel filtration, Superdex HR 10/30 column, 50 mM NaCO3 (pH 11.0), 150 mM NaCl; calibrated with IgG, BSA and ovalbumin; oligomeric state (tetramer)

Protein | stoichiometry N
AVR6(C58S), produced in E. coli (natural protein, chicken, checked by ESI-MS on AVR2-b only; avidin related protein 6 (AVR6), chicken, with C58S; also called AVR6-b) QTVARKCSLTGEWDNNLGSIMTIGAVNDNGEFNGTYITAVADNPGNIKLSPLLGIQHKRASQPTFGFTVHWNFSESTSVFVGQCFVDRSGKEVLKTKWLQRLAVDDISDDWKATRVGYNNFTRQRTVEE | 4
AVR2-b (AVR2 produced in E. coli) (natural protein, chicken, three additional residues left at the N-terminus after cleavage of the bacterial OmpA signal peptide; avidin related protein 2 (AVR2), chicken; expected Mr of the product 14307.8 Da; Not glycosylated (bacterial expression); Crystallised in complex with D-biotin) QTVARKCSLTGEWDNDLGSIMTIGAVNDNGEFDGTYITAVADNPGNITLSPLLGIQHKRASQPTFGFTVHWNFSESTSVFVGQCFVDRSGKEVLKTKWLQRLAVDDISDDWIATRVGNNDFTRQHTVEE | 4
Avidin related protein 2 (AVR2), produced in insect cells (natural protein, chicken, UniProt P56732 25-150, looked up, glycosylated (two potential glycosylation sites; both utilized to some extent), avidin related protein 2 (AVR2), chicken; The crystal structure PDB 1WBI is of the E. coli form AVR2-b) ARKCSLTGEWDNDLGSIMTIGAVNDNGEFDGTYITAVADNPGNITLSPLLGIQHKRASQPTFGFTVHWNFSESTSVFVGQCFVDRSGKEVLKTKWLQRLAVDDISDDWIATRVGNNDFTRQHTVEE | 4
AVR2(I109K) (natural protein, chicken, UniProt P56732 25-150, looked up, avidin related protein 2 (AVR2), chicken, with I109K) ARKCSLTGEWDNDLGSIMTIGAVNDNGEFDGTYITAVADNPGNITLSPLLGIQHKRASQPTFGFTVHWNFSESTSVFVGQCFVDRSGKEVLKTKWLQRLAVDDISDDWKATRVGNNDFTRQHTVEE | 4
AVR4 (carries C122S), produced in insect cells (natural protein, chicken, UniProt P56734 25-150, looked up, avidin related protein 4 (identical to AVR5), chicken, with C122S; also called AVR5 (AVR4 is identical to AVR5)) ARKCSLTGKWTNNLGSIMTIRAVNSRGEFTGTYLTAVADNPGNITLSPLLGIQHKRASQPTFGFTVHWNFSESTTVFTGQCFIDRNGKEVLKTMWLLRSSVNDISYDWKATRVGYNNFTRLSTVEE | 4
AVR4(K109I) (also carries C122S), produced in insect cells (natural protein, chicken, UniProt P56734 25-150, looked up, avidin related protein 4 (identical to AVR5), chicken, with K109I and C122S; An E. coli form, AVR4(K109I)-b, was also made) ARKCSLTGKWTNNLGSIMTIRAVNSRGEFTGTYLTAVADNPGNITLSPLLGIQHKRASQPTFGFTVHWNFSESTTVFTGQCFIDRNGKEVLKTMWLLRSSVNDISYDWIATRVGYNNFTRLSTVEE | 4
